Results published in patent publication US20180016327A1 (Chugai, published 2018).
Positions count from the first letter of the chain named.

B1: CFP0011 11L 91H (antibody, V domains shown)
VH: QVQLVQSGAEVKKPGSSVKVSCKASGGTFSSYAISWVRQAPGQGLEWMGGIIPIFGTANYAQKFQGRVTITADESTSTAYMELSSLRSEDTAVYYCARDMSEFLGWSNYYSYPMDVWGQGTTVTVSS
VL: DIQMTQSPSSLSASVGDRVTITCRASQSIEDDLAWYQQKPGKAPKLLIYHASSLQSGVPSRFSGSGSGTDFTLTISSLQPEDFATYYCQQHDNSPYTFGQGTKVEIK
B2: CFP0017 17L 32N (antibody, V domains shown)
VH: QVQLVQSGAEVKKPGSSVKVSCKASGGTFSSYAISWVRQAPGQGLEWMGGIIPIFGTANYAQKFQGRVTITADESTSTAYMELSSLRSEDTAVYYCARGGWWGGALDYWGQGTLVTVSS
VL: B1 VL with D32N, H91S, N93S, S94Y, Y96L
B3: CFP0021 (antibody, V domains shown)
VH: QVQLVESGGGLVQPGGSLRLSCAASGFTFSDHYMDWVRQAPGKGLEWVGRTRNKANSYTTEYAASVKGRFTISRDDSKNSLYLQMNSLKTEDTAVYYCARTGMMYWGIFDVWGQGTLVTVSS
VL: B1 VL with S53T, N93S, S94Y, Y96L
notes: IgG format
B4: CFP0011 11L 93R (antibody, V domains shown)
VH: B1 VH
VL: B1 VL with H91S, N93R
B5: CFP0021 21L 53S (antibody, V domains shown)
VH: B3 VH
VL: B1 VL with N93S, S94Y, Y96L
B6: CFP0011 11L 92S (antibody, V domains shown)
VH: B1 VH
VL: B1 VL with H91S, D92S
B7: CFP0021 21L 50E (antibody, V domains shown)
VH: B3 VH
VL: B1 VL with H50E, S53T, N93S, S94Y, Y96L
B8: CFP0021 21L 31N (antibody, V domains shown)
VH: B3 VH
VL: B1 VL with D31N, S53T, N93S, S94Y, Y96L
B9: CFP0021 21L 91S (antibody, V domains shown)
VH: B3 VH
VL: B1 VL with S53T, H91S, N93S, S94Y, Y96L
B10: CFP0011 11L 96W (antibody, V domains shown)
VH: B1 VH
VL: B1 VL with H91S, Y96W
B11: CFP0011 11L 96H (antibody, V domains shown)
VH: B1 VH
VL: B1 VL with H91S, Y96H
B12: CFP0021 21L 30A (antibody, V domains shown)
VH: B3 VH
VL: B1 VL with E30A, S53T, N93S, S94Y, Y96L
B13: CFP0011 11L 96I (antibody, V domains shown)
VH: B1 VH
VL: B1 VL with H91S, Y96I
B14: CFP0021 21L 91Y (antibody, V domains shown)
VH: B3 VH
VL: B1 VL with S53T, H91Y, N93S, S94Y, Y96L
B15: CFP0021 21L 50D (antibody, V domains shown)
VH: B3 VH
VL: B1 VL with H50D, S53T, N93S, S94Y, Y96L
B16: CFP0011 11L 96L (antibody, V domains shown)
VH: B1 VH
VL: B1 VL with H91S, Y96L
B17: CFP0021 21L 32Q (antibody, V domains shown)
VH: B3 VH
VL: B1 VL with D32Q, S53T, N93S, S94Y, Y96L
B18: CFP0021 21L 50Q (antibody, V domains shown)
VH: B3 VH
VL: B1 VL with H50Q, S53T, N93S, S94Y, Y96L
B19: CFP0021 21L 53N (antibody, V domains shown)
VH: B3 VH
VL: B1 VL with S53N, N93S, S94Y, Y96L
B20: CFP0011 11L 94T (antibody, V domains shown)
VH: B1 VH
VL: B1 VL with H91S, S94T
B21: CFP0021 21L 50A (antibody, V domains shown)
VH: B3 VH
VL: B1 VL with H50A, S53T, N93S, S94Y, Y96L
B22: CFP0021 21L 93G (antibody, V domains shown)
VH: B3 VH
VL: B1 VL with S53T, N93G, S94Y, Y96L
B23: CFP0021 21L 34N (antibody, V domains shown)
VH: B3 VH
VL: B1 VL with A34N, S53T, N93S, S94Y, Y96L
B24: CFP0021 21L 92N (antibody, V domains shown)
VH: B3 VH
VL: B1 VL with S53T, D92N, N93S, S94Y, Y96L
B25: CFP0011 11L 96F (antibody, V domains shown)
VH: B1 VH
VL: B1 VL with H91S, Y96F
B26: CFP0011 11L 93S (antibody, V domains shown)
VH: B1 VH
VL: B1 VL with H91S, N93S
B27: CFP0021 21L 92S (antibody, V domains shown)
VH: B3 VH
VL: B1 VL with S53T, D92S, N93S, S94Y, Y96L
B28: CFP0021 21L 30H (antibody, V domains shown)
VH: B3 VH
VL: B1 VL with E30H, S53T, N93S, S94Y, Y96L
B29: CFP0021 21L 50T (antibody, V domains shown)
VH: B3 VH
VL: B1 VL with H50T, S53T, N93S, S94Y, Y96L
B30: CFP0021 21L 50Y (antibody, V domains shown)
VH: B3 VH
VL: B1 VL with H50Y, S53T, N93S, S94Y, Y96L
B31: CFP0021 21L 31A (antibody, V domains shown)
VH: B3 VH
VL: B1 VL with D31A, S53T, N93S, S94Y, Y96L
B32: CFP0011 11L 93D (antibody, V domains shown)
VH: B1 VH
VL: B1 VL with H91S, N93D
B33: CFP0011 11L 91R (antibody, V domains shown)
VH: B1 VH
VL: B1 VL with H91R
B34: CFP0021 21L 91R (antibody, V domains shown)
VH: B3 VH
VL: B1 VL with S53T, H91R, N93S, S94Y, Y96L
B35: CFP0021 21L 32N (antibody, V domains shown)
VH: B3 VH
VL: B1 VL with D32N, S53T, N93S, S94Y, Y96L
B36: CFP0021 21L 30S (antibody, V domains shown)
VH: B3 VH
VL: B1 VL with E30S, S53T, N93S, S94Y, Y96L
B37: CFP0011 11L 96P (antibody, V domains shown)
VH: B1 VH
VL: B1 VL with H91S, Y96P
B38: CFP0021 21L 50S (antibody, V domains shown)
VH: B3 VH
VL: B1 VL with H50S, S53T, N93S, S94Y, Y96L
B39: CFP0021 21L 31H (antibody, V domains shown)
VH: B3 VH
VL: B1 VL with D31H, S53T, N93S, S94Y, Y96L
B40: CFP0021 21L 53H (antibody, V domains shown)
VH: B3 VH
VL: B1 VL with S53H, N93S, S94Y, Y96L
B41: CFP0011 11L 94Y (antibody, V domains shown)
VH: B1 VH
VL: B1 VL with H91S, S94Y
B42: CFP0011 11L 93G (antibody, V domains shown)
VH: B1 VH
VL: B1 VL with H91S, N93G
B43: CFP0011 11L 91Y (antibody, V domains shown)
VH: B1 VH
VL: B1 VL with H91Y
B44: CFP0021 21L 93D (antibody, V domains shown)
VH: B3 VH
VL: B1 VL with S53T, N93D, S94Y, Y96L
B45: CFP0021 21L 30D (antibody, V domains shown)
VH: B3 VH
VL: B1 VL with E30D, S53T, N93S, S94Y, Y96L

The binders below were run against T1, human C5 (human, UniProt P01031 19-673; P01031 678-1676, Beta and alpha chains are disulfide-linked and the protein is glycosylated.) (assay: Biacore, captured antibody, pH 7.4, 37 C;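 further: biacore binding response of anti-C5 antibody light chain variants captured on chip with human C5 injected, ACES running buffer containing 1.2 mM CaCl₂, parent light chain antibody set to 100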).
T1 construct: Either in-house recombinant C5 or plasma derived C5 (CALBIOCHEM) was used; also called recombinant human C5; plasma derived human C5
Experimental: The light chain variants were tested for the binding affinity to C5 at pH 7.4 and at 37 degrees C. using Biacore T200 instrument (GE Healthcare) or Biacore 4000 instrument (GE Healthcare). […] Anti-C5 antibodies were captured on an immobilized molecule, and then human C5 was injected. The running buffer used was pH 7.4 ACES Buffer containing 1.2 mM Ca (20 mM ACES, 150 mM NaCl, 1.2 mM CaCl₂, 0.05% Tween 20). A value, % binding, was determined by normalizing binding response with that of antibody comprising parent light chain as 100.

Point of comparison: B35, “% binding (parent = 100)” value 17.5%. Against it:
- B1 — higher, 320%
- B2 — higher, 27%
- B3 — higher, 100%
- B4 — lower, 11.7%
- B5 — higher, 73.2%
- B6 — lower, 1.1%
- B7 — higher, 44%
- B8 — higher, 52.3%
- B9 — higher, 17.8%
- B10 — lower, 5.4%
- B11 — lower, 5.1%
- B12 — higher, 76.9%
- B13 — lower, 0.8%
- B14 — higher, 79.5%
- B15 — higher, 53%
- B16 — lower, 3.2%
- B17 — higher, 80.4%
- B18 — higher, 61.1%
- B19 — higher, 97.6%
- B20 — higher, 207%
- B21 — higher, 33.4%
- B22 — higher, 37.9%
- B23 — lower, 14.4%
- B24 — lower, 4.7%
- B25 — higher, 82.8%
- B26 — lower, 4%
- B27 — lower, 4.8%
- B28 — higher, 59.7%
- B29 — higher, 38.8%
- B30 — higher, 74.9%
- B31 — higher, 31.2%
- B32 — lower, 5.4%
- B33 — lower, -2.6%
- B34 — lower, 1.5%
- B36 — higher, 76.7%
- B37 — lower, -1.6%
- B38 — higher, 40.6%
- B39 — higher, 41.3%
- B40 — higher, 75.7%
- B41 — lower, -0.7%
- B42 — lower, 3.6%
- B43 — higher, 56%
- B44 — higher, 22.2%
- B45 — higher, 87.5%
